Assays:
FGFR1 = FGFR1 (UniProt P11362); experiment: phosphorylation enrichment, bacterial display (enrichment ratio); higher = better substrate or ligand; peptides without Tyr show the background
c-Src = experiment: as above
Fes = Fes (UniProt P07332); experiment: as above
AncSZ = experiment: as above
FGFR3 = FGFR3 (UniProt P22607); experiment: as above
Fyn = Fyn (UniProt P06241); experiment: as above
Fer (mouse) = experiment: as above
EPHB1 = EPHB1 (UniProt P54762); experiment: as above
EPHB2 = EPHB2 (UniProt P29323); experiment: as above
c-Abl (mouse) = experiment: as above
Jak2 = Jak2 (UniProt O60674); experiment: as above
Chain of Jak2 (O60674 whole entry, looked up): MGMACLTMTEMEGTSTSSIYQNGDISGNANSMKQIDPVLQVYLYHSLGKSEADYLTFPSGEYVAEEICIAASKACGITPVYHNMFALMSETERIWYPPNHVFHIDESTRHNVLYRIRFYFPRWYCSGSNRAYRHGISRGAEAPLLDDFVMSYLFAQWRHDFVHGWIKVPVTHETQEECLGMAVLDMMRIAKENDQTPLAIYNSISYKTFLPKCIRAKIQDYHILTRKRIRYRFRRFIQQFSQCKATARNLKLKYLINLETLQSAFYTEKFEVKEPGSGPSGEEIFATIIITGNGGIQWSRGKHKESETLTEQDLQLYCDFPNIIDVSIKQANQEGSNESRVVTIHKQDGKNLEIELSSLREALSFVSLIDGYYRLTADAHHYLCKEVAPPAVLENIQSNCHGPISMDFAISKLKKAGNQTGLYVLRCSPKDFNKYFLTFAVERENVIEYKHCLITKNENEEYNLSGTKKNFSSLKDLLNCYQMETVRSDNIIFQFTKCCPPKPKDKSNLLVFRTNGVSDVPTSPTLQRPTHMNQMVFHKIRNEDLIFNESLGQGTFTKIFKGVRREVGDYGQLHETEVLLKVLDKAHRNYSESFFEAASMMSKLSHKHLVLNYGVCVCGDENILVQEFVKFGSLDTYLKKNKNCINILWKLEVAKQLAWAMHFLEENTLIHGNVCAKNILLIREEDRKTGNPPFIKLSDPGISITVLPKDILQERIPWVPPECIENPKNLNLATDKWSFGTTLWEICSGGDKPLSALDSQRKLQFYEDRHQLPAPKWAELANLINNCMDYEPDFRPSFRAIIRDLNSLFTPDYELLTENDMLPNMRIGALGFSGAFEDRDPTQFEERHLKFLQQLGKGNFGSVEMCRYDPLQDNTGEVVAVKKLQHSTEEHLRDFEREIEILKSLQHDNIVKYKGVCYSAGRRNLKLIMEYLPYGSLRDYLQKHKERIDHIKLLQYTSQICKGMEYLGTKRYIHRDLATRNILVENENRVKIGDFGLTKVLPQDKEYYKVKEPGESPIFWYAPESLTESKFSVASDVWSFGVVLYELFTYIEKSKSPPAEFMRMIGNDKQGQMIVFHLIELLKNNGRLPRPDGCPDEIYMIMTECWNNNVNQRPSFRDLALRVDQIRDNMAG

MERTK = MERTK (UniProt Q12866); experiment: as above
Chain of MERTK (Q12866 whole entry, looked up): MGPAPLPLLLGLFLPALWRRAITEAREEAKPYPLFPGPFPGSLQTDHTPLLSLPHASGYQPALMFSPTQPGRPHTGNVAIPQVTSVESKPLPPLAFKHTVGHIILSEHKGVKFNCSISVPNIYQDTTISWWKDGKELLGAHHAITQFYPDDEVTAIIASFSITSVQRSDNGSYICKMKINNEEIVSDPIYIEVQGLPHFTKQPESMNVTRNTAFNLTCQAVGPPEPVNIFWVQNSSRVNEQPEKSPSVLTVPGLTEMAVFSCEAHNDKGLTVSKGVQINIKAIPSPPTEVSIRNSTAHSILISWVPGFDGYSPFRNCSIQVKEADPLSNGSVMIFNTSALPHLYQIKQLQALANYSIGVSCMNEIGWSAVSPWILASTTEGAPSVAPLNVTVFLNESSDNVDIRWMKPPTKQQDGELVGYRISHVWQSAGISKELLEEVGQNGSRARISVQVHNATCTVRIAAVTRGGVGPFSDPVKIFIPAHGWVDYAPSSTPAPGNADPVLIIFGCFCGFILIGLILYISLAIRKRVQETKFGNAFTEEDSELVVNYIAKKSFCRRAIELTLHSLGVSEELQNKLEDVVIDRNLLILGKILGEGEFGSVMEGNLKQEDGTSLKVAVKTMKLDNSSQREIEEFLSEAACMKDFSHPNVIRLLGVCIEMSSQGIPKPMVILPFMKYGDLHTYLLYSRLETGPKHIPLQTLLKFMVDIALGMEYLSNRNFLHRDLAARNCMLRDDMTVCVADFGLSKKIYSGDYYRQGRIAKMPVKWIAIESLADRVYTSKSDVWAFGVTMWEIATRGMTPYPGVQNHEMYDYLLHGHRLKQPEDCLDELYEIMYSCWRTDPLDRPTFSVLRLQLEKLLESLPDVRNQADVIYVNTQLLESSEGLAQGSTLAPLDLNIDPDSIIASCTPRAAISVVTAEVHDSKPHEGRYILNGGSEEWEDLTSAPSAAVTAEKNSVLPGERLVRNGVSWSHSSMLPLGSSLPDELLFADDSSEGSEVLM

Hck = Hck (UniProt P08631); experiment: as above
c-Src SH2 = experiment: SH2 binding enrichment of the phosphorylated peptide, bacterial display (enrichment ratio); higher = better substrate or ligand; peptides without Tyr show the background
SHP2-C SH2 = experiment: as above
Grb2 SH2 = Grb2 SH2 (UniProt P62993); experiment: as above
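For SH2 binding enrichment of the phosphorylated peptide, bacterial display in this document: peptide library displayed on the E. coli surface as eCPX fusions, selected cells deep-sequenced, score is each peptide's frequency after selection divided by its frequency in the input.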
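For phosphorylation enrichment, bacterial display in this document: 11-residue human phosphosite peptides and single-mutation variants displayed on the E. coli surface, counted by deep sequencing, each peptide's frequency after selection divided by its frequency in the unselected input library; frequency after pTyr selection over input frequency; kinase dosed for 20-30% of maximal phosphorylation in three min.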

Chain of FGFR3 (P22607 whole entry, looked up): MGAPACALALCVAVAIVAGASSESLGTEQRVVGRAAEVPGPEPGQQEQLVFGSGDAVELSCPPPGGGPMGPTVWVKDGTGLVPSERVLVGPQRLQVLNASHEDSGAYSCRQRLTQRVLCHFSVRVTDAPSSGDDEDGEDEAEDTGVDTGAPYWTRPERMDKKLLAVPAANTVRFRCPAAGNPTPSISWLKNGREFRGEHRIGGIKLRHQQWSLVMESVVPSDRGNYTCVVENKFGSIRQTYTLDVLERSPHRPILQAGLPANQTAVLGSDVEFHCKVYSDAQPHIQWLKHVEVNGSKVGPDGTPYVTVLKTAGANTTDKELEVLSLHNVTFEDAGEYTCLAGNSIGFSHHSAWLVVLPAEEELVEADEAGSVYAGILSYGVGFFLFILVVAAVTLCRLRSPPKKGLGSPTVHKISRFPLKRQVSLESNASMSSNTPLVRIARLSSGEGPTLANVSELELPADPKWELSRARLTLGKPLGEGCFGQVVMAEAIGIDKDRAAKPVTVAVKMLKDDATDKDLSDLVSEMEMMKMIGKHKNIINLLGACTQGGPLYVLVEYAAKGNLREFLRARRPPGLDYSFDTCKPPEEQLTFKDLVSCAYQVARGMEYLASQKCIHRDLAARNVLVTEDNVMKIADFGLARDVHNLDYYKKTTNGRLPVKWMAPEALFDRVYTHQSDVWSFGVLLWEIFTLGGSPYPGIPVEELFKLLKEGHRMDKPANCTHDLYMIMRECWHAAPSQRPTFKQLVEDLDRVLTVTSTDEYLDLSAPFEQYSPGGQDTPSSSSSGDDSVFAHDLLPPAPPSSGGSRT
Chain of EPHB1 (P54762 whole entry, looked up): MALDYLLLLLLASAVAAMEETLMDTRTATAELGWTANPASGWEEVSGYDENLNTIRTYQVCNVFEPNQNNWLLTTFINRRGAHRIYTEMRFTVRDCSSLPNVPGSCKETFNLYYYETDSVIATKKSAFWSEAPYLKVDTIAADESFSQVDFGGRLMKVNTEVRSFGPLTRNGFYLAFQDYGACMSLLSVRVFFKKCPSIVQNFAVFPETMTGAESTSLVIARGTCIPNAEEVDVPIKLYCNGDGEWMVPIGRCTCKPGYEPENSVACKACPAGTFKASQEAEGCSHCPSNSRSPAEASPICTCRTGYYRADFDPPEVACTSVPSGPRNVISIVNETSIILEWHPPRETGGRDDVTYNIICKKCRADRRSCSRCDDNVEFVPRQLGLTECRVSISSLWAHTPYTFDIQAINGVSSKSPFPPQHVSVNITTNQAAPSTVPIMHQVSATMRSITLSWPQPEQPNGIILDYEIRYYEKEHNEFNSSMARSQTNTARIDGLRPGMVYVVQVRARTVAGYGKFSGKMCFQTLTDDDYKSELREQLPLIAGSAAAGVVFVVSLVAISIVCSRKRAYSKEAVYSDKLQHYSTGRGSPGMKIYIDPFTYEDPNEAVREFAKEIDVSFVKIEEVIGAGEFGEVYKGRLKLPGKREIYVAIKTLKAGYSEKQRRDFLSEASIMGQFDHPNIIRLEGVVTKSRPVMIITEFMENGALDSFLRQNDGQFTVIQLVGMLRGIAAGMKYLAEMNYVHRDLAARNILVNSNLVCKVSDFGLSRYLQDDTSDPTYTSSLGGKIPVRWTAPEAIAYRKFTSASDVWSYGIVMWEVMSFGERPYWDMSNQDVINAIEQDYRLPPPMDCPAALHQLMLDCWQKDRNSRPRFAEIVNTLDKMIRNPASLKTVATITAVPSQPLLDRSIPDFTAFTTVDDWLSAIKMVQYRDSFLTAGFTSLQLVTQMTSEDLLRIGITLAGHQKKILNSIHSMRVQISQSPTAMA
Chain of Fes (P07332 whole entry, looked up): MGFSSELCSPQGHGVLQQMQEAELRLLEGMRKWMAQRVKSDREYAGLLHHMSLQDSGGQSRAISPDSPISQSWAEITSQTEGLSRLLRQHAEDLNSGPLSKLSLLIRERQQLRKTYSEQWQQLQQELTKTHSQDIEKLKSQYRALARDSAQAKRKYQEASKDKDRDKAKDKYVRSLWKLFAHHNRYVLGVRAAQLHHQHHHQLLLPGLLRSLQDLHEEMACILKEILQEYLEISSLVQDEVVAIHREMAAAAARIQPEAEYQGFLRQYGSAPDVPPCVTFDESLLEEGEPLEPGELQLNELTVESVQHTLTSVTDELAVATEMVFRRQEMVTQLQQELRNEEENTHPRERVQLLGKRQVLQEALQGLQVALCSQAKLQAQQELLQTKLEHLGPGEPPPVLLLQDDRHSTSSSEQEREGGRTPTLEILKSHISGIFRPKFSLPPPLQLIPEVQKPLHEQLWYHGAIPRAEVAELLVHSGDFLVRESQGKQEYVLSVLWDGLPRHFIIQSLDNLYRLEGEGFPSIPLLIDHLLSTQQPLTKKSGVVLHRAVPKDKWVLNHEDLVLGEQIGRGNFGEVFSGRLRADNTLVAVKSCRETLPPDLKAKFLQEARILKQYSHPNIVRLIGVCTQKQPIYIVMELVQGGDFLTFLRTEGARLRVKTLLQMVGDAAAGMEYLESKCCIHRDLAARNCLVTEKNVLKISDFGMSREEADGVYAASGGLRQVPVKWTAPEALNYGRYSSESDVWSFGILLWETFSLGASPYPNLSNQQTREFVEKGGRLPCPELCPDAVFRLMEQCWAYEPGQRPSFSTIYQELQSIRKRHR

| SH2 binding enrichment (c-Src SH2) | SH2 binding enrichment (SHP2-C SH2) | SH2 binding enrichment (Grb2 SH2) | Sequence | phosphorylation enrichment (FGFR1) | phosphorylation enrichment (c-Src) | phosphorylation enrichment (Fes) | phosphorylation enrichment (AncSZ) | phosphorylation enrichment (FGFR3) | phosphorylation enrichment (Fyn) | phosphorylation enrichment (Fer (mouse)) | phosphorylation enrichment (EPHB1) | phosphorylation enrichment (EPHB2) | phosphorylation enrichment (c-Abl (mouse)) | phosphorylation enrichment (Jak2) | phosphorylation enrichment (MERTK) | phosphorylation enrichment (Hck) |
| --- | --- | --- | --- | --- | --- | --- | --- | --- | --- | --- | --- | --- | --- | --- | --- | --- |
| 0.461 | 0.961 | 0.813 | DDKEYYSVHNK [MET_Y1235_Y1230D] | 1.6 | 0.874 | 1.06 | 1.93 | 1.51 | 0.529 | 0.603 | 0.563 | 0.629 | 0.942 | 1.17 | 0.405 | 0.791 |
| 0.606 | 0.741 | 0.964 | DDKQPYEKKAA [HMGB1_Y144] | 0.493 | 0.436 | 0.947 | 0.988 | 0.629 | 0.518 | 0.475 | 0.585 | 0.464 | 0.539 | 0.851 | 0.415 | 0.536 |
| 0.457 | 0.496 | 0.824 | DDSNLYINVKL [MTHFD1_Y52] | 0.702 | 0.442 | 1.63 | 1.45 | 0.994 | 0.443 | 0.751 | 0.777 | 0.804 | 1.08 | 1.56 | 0.424 | 0.607 |
| 0.448 | 0.793 | 0.916 | DEDFLYREELA [POR_Y575_YF] | 0.536 | 0.487 | 1.21 | 1.17 | 0.725 | 0.443 | 0.544 | 0.506 | 0.594 | 0.763 | 1.15 | 0.489 | 0.44 |
| 0.556 | 0.701 | 0.891 | DEENFYQGSME [ASCC1_Y36_D34N] | 0.465 | 0.733 | 1.36 | 1.3 | 0.647 | 0.498 | 0.624 | 0.588 | 0.604 | 0.821 | 1.05 | 0.517 | 0.7 |
| 0.621 | 0.711 | 1.01 | DEQKKYYNAMK [SCN5A_Y1494_E1489D] | 0.575 | 0.39 | 0.772 | 0.874 | 0.508 | 0.442 | 0.35 | 0.613 | 0.543 | 0.594 | 0.531 | 0.572 | 0.458 |
| 0.706 | 0.75 | 1.02 | DFCDLYGGEKF [PTPN11_Y66_Y63C_YF] | 0.575 | 2.78 | 1.33 | 1.03 | 0.832 | 1.35 | 0.672 | 0.511 | 0.564 | 0.833 | 0.908 | 0.54 | 1.76 |
| 1.08 | 2.13 | 1.67 | DFKIIYIVPMR [SNRNP200_Y540_A542V] | 0.55 | 0.42 | 1.11 | 1.09 | 0.653 | 0.412 | 0.487 | 0.525 | 0.532 | 1.74 | 0.952 | 0.366 | 0.382 |
| 0.364 | 0.578 | 0.635 | DFPIGYPSFLA [TBCK_Y153_YF] | 0.578 | 0.535 | 1.07 | 0.79 | 0.631 | 0.517 | 0.459 | 0.477 | 0.503 | 0.594 | 0.748 | 0.37 | 0.481 |
| 0.487 | 0.644 | 0.976 | DGTGRYLCNAC [GATA5_Y208_H207R] | 0.475 | 0.349 | 0.573 | 0.552 | 0.522 | 0.424 | 0.362 | 0.4 | 0.4 | 0.523 | 0.455 | 0.383 | 0.375 |
| 0.557 | 0.597 | 0.879 | DIMDLYNQPEP [IL36A_Y96] | 0.491 | 1.06 | 1.21 | 1.5 | 0.688 | 0.69 | 0.66 | 0.547 | 0.602 | 0.852 | 1.55 | 0.481 | 0.817 |
| 0.587 | 1.16 | 1.05 | DKANRYFSPNF [PTEN_Y336] | 0.397 | 0.362 | 0.521 | 0.583 | 0.461 | 0.323 | 0.375 | 0.296 | 0.301 | 0.438 | 0.488 | 0.374 | 0.402 |
| 0.44 | 1.11 | 0.83 | DKEKWYPLGNS [PIK3C2G_Y1438] | 0.384 | 0.345 | 0.868 | 0.762 | 0.569 | 0.366 | 0.422 | 0.43 | 0.441 | 0.488 | 0.681 | 0.292 | 0.372 |
| 0.413 | 0.88 | 0.711 | DKGTLYIVEQI [PLBD1_Y375] | 0.423 | 0.383 | 1.09 | 0.985 | 0.703 | 0.492 | 0.463 | 0.579 | 0.525 | 0.737 | 1.03 | 0.355 | 0.413 |
| 0.766 | 0.853 | 0.99 | DKNSSYFADWL [TUBB8_Y340] | 1.51 | 0.512 | 1.09 | 1.13 | 1.38 | 0.584 | 0.564 | 0.573 | 0.53 | 0.746 | 1.39 | 1.15 | 0.492 |
| 0.528 | 0.75 | 0.765 | DLDPNYVLSSR [CKM_Y125] | 0.465 | 0.534 | 1.01 | 1.17 | 0.714 | 0.416 | 0.394 | 0.523 | 0.636 | 0.528 | 0.759 | 0.464 | 0.473 |
| 0.48 | 0.936 | 0.81 | DLITAYRAHGF [PDHA1_Y118_H113D] | 0.525 | 0.373 | 0.756 | 0.543 | 0.54 | 0.401 | 0.387 | 0.409 | 0.428 | 0.535 | 0.563 | 0.355 | 0.49 |
| 0.466 | 0.836 | 0.996 | DLLMQHPKAQG [FAM83C_Y600_Y600H] | 0.5 | 0.646 | 0.693 | 0.566 | 0.892 | 0.509 | 0.483 | 0.515 | 0.332 | 1.46 | 0.801 | 0.53 | 0.523 |
| 0.457 | 0.882 | 0.7 | DLLNSYTENEG [HSPA4L_Y600_I601T] | 0.578 | 0.616 | 1.24 | 1.17 | 0.759 | 0.614 | 0.446 | 0.482 | 0.618 | 0.623 | 1.16 | 0.492 | 0.603 |
| 0.776 | 1.23 | 1.47 | DLVLQYLRVPL [F9_Y371_A366D] | 0.528 | 0.46 | 1.13 | 1.09 | 0.757 | 0.518 | 0.435 | 0.489 | 0.525 | 0.617 | 3.15 | 0.404 | 0.469 |
| 0.598 | 0.687 | 0.918 | DLVSEYQQFQD [TUBB3_Y422_YF] | 0.671 | 0.657 | 1.33 | 1.52 | 1.01 | 0.675 | 0.58 | 0.721 | 0.662 | 0.8 | 1.25 | 0.511 | 0.643 |
| 0.714 | 0.8 | 0.865 | DNEALYDICFC [TUBB3_Y208_R213C] | 0.748 | 6.25 | 1.73 | 6.01 | 0.992 | 7.33 | 12.5 | 4.22 | 5.33 | 2.07 | 1.46 | 8.05 | 5.92 |
| 0.834 | 0.749 | 0.832 | DNPAKYFILES [DPP10_Y512] | 0.508 | 0.442 | 1.04 | 0.833 | 0.715 | 0.485 | 0.419 | 0.544 | 0.567 | 0.558 | 0.955 | 0.542 | 0.51 |
| 0.605 | 0.686 | 0.782 | DSMQSYDLDFP [UNC13B_Y243_YF] | 0.537 | 0.569 | 1.02 | 1.15 | 0.646 | 0.48 | 0.541 | 0.642 | 0.546 | 0.623 | 1.03 | 0.453 | 0.461 |
| 0.733 | 0.456 | 0.915 | DSMQSYDLDYP [UNC13B_Y243] | 0.665 | 0.474 | 0.946 | 1.3 | 0.673 | 0.466 | 0.451 | 0.4 | 0.552 | 0.496 | 1.45 | 0.405 | 0.474 |
| 0.864 | 0.666 | 11.8 | DTKPAYQNLRQ [BOD1_Y82] | 0.434 | 0.38 | 0.541 | 0.462 | 0.452 | 0.383 | 0.385 | 0.38 | 0.35 | 0.719 | 0.524 | 0.313 | 0.349 |
| 0.505 | 0.696 | 0.894 | DVLVEYQEEGR [GNS_Y416_G418E] | 0.59 | 0.496 | 1.21 | 1.32 | 0.884 | 0.593 | 0.578 | 0.634 | 0.617 | 0.642 | 1.05 | 0.51 | 0.661 |
| 0.464 | 0.511 | 0.757 | EAVSIYQFHGQ [CBLC_Y402] | 0.554 | 7.06 | 0.926 | 1.01 | 0.594 | 5.93 | 10.4 | 2.31 | 1.62 | 0.969 | 0.852 | 5.19 | 3.09 |

| Sequence | SH2 binding enrichment (c-Src SH2) | SH2 binding enrichment (SHP2-C SH2) | SH2 binding enrichment (Grb2 SH2) | phosphorylation enrichment (FGFR1) | phosphorylation enrichment (c-Src) | phosphorylation enrichment (Fes) | phosphorylation enrichment (AncSZ) | phosphorylation enrichment (FGFR3) | phosphorylation enrichment (Fyn) | phosphorylation enrichment (Fer (mouse)) | phosphorylation enrichment (EPHB1) | phosphorylation enrichment (EPHB2) | phosphorylation enrichment (c-Abl (mouse)) | phosphorylation enrichment (Jak2) | phosphorylation enrichment (MERTK) | phosphorylation enrichment (Hck) |
| --- | --- | --- | --- | --- | --- | --- | --- | --- | --- | --- | --- | --- | --- | --- | --- | --- |
| DHAGTYGLGDR [MAPT_Y18] | 0.588 | 0.783 | 0.797 | 0.406 | 0.533 | 0.576 | 0.429 | 0.45 | 0.48 | 0.3 | 0.363 | 0.304 | 0.442 | 0.507 | 0.352 | 0.43 |
